Data set [1] addresses D-malate dehydrogenase (MDH) from A. baumannii, N-terminal His-tag fusion (Acinetobacter baumannii ATCC 19606). Briefly: mass photometry; Refeyn TwoMP, 25 nM protein in PBS, 60 s movies, calibrated against NativeMark standard.
Data set [2] concerns the target T1, malic semialdehyde dehydrogenase (MSA-DH) (Acinetobacter baumannii, UniProt D0C9N7).
T1 construct: gene HMPREF0010_01350; N-terminal His-thioredoxin fusion, tetramer
T1 sequence (D0C9N7 1-483): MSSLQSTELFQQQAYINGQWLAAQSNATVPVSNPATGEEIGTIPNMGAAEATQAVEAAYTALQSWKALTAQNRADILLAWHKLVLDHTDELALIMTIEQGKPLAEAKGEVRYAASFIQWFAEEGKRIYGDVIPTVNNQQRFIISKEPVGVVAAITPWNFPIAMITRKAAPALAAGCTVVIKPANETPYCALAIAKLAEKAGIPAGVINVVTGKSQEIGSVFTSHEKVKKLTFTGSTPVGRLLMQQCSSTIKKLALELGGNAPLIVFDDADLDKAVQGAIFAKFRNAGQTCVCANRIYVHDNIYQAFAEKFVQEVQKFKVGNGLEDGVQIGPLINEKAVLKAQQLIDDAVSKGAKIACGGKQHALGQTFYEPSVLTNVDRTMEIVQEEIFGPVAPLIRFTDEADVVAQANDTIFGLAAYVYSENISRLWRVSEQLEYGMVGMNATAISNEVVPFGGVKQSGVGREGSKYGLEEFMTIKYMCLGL
Kind of data set: MSA depletion (MBTH) and NADH formation assays with […] NAD+. In kind it is biochemical.

Data set [3] concerns the target T2, carnitine monooxygenase oxygenase component CntA (Acinetobacter baumannii, UniProt D0C9N6).
T2 construct: CntA after on-column cleavage of GST tag; with CntB (reductase)
Briefly: MBTH aldehyde formation assay and L-carnitine depletion assay (specific activity). In kind it is biochemical.

In data set [4] the target is malic semialdehyde dehydrogenase (MSA-DH) from A. baumannii, N-terminal His-thioredoxin fusion (Acinetobacter baumannii ATCC 19606). Briefly: mass photometry; Refeyn TwoMP, 25 nM protein in PBS, 60 s movies, calibrated against NativeMark standard.
Data set [5] shares this target. Kind of data set: SEC; analytical size exclusion chromatography, Superdex 200 increase 5/150 GL, 20 mM HEPES-NaOH pH 7.5, 150 mM NaCl, 0.45 mL/min, 50 uL of 3 mg/mL protein injected, calibrated with protein standards.
Data set [6] shares this target. Kind of data set: crystal structure; X-ray, 2.6 A, space group P212121, 12 chains (three tetramers) in the asymmetric unit; protein at 40 mg/mL supplemented with 7 mM D-malate.
The target in data set [7] is T3, D-malate dehydrogenase (MDH) (Acinetobacter baumannii, UniProt A0ABX6CCN1).
T3 construct: gene dmlA; N-terminal His-tag fusion, tetramer
T3 sequence (A0ABX6CCN1 1-370): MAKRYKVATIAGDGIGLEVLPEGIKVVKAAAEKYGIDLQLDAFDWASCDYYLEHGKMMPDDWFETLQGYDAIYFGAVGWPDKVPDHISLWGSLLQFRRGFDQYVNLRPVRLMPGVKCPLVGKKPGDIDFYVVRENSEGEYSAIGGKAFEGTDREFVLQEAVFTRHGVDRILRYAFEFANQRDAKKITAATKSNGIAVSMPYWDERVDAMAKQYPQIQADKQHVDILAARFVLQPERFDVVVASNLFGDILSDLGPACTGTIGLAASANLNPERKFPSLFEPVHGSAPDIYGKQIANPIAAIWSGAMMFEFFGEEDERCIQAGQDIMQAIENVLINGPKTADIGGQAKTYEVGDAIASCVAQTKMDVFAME
Kind of data set: spectroscopic NADH formation assay ([…] nm) with D-malate, varied inhibitor concentrations. In kind it is biochemical.

Data set [8] addresses T2, carnitine monooxygenase oxygenase component CntA. Kind of data set: MBTH aldehyde formation assay (specific activity). In kind it is biochemical.
Substrate in data set [9]: O=C[C@H](O)CC(=O)O
Briefly: purified protein. The following applies: NAD+ or NADP+ proposed from model: Arg166, Arg284, Ser447 bind the carboxylate; catalytic Cys290 (covalent hemithioacetal intermediate) and Glu256. In kind it is biochemical, Acinetobacter baumannii.

Substrate in data set [10]: O=C(O)C[C@@H](O)C(=O)O
Kind of data set: purified protein. In kind it is biochemical, Acinetobacter baumannii. Conditions: NAD+; Mg2+ or Mn2+.

Take “D-malate dehydrogenase (MDH) from A. baumannii, N-terminal His-tag fusion (enzyme)”: the stoichiometry N (in general, the number of molecules, sites or subunits per partner or assembly) in data set [1] is 4. Consider `NC(=O)c1ccc[n+]([C@@H]2O[C@H](COP(=O)([O-])OP(=O)(O)OC[C@H]3O[C@@H](n4cnc5c(N)ncnc54)[C@H](O)[C@@H]3O)[C@@H](O)[C@H]2O)c1` [NAD^+], for which the “MSA depletion (MBTH) and NADH formation assays with 2 mM NAD+” value in [2] was “MSA-DH can use NAD^+ or NADP^+ as a cofactor for the oxidation of the MSA substrate”.

For the molecule `C[N+](C)(C)C[C@H](O)CC(=O)[O-]` [L-carnitine], in [3], the “MBTH aldehyde formation assay and L-carnitine depletion assay (specific activity)” value was determined as 2.8 ± 0.2 µmol/min/mg. Regarding “malic semialdehyde dehydrogenase (MSA-DH) from A. baumannii, N-terminal His-thioredoxin fusion (enzyme)”, the stoichiometry N in [4], in data set [5] and in data set [6] was 4 in each case. Regarding `O=C(O)C(O)C(O)C(=O)O` (stereo not drawn) [meso-tartrate], the Ki – broadly, the dissociation constant of the complex between target and ligand, obtained from inhibition or displacement – in data set [7] came out at 320 ± 80 µM. As for `C[N+](C)(C)CCCC(=O)[O-]` [γ-butyrobetaine], the “MBTH aldehyde formation assay (specific activity)” value in [8] came to 2.1 ± 0.2 µmol/min/mg.

B1: malic semialdehyde dehydrogenase (MSA-DH) (Acinetobacter baumannii ATCC 19606 = CIP 70.34 = JCM 6841) (protein)
chain: MSSLQSTELFQQQAYINGQWLAAQSNATVPVSNPATGEEIGTIPNMGAAEATQAVEAAYTALQSWKALTAQNRADILLAWHKLVLDHTDELALIMTIEQGKPLAEAKGEVRYAASFIQWFAEEGKRIYGDVIPTVNNQQRFIISKEPVGVVAAITPWNFPIAMITRKAAPALAAGCTVVIKPANETPYCALAIAKLAEKAGIPAGVINVVTGKSQEIGSVFTSHEKVKKLTFTGSTPVGRLLMQQCSSTIKKLALELGGNAPLIVFDDADLDKAVQGAIFAKFRNAGQTCVCANRIYVHDNIYQAFAEKFVQEVQKFKVGNGLEDGVQIGPLINEKAVLKAQQLIDDAVSKGAKIACGGKQHALGQTFYEPSVLTNVDRTMEIVQEEIFGPVAPLIRFTDEADVVAQANDTIFGLAAYVYSENISRLWRVSEQLEYGMVGMNATAISNEVVPFGGVKQSGVGREGSKYGLEEFMTIKYMCLGL
notes: N-terminal His-thioredoxin fusion, tetramer
Regarding B1, the Km (in general, the substrate concentration at which the rate is half of its maximum) in data set [9] turned out to be 2600 ± 140 µM.

B2: D-malate dehydrogenase (MDH) (Acinetobacter baumannii ATCC 19606 = CIP 70.34 = JCM 6841) (protein)
chain: MAKRYKVATIAGDGIGLEVLPEGIKVVKAAAEKYGIDLQLDAFDWASCDYYLEHGKMMPDDWFETLQGYDAIYFGAVGWPDKVPDHISLWGSLLQFRRGFDQYVNLRPVRLMPGVKCPLVGKKPGDIDFYVVRENSEGEYSAIGGKAFEGTDREFVLQEAVFTRHGVDRILRYAFEFANQRDAKKITAATKSNGIAVSMPYWDERVDAMAKQYPQIQADKQHVDILAARFVLQPERFDVVVASNLFGDILSDLGPACTGTIGLAASANLNPERKFPSLFEPVHGSAPDIYGKQIANPIAAIWSGAMMFEFFGEEDERCIQAGQDIMQAIENVLINGPKTADIGGQAKTYEVGDAIASCVAQTKMDVFAME
notes: N-terminal His-tag fusion, tetramer
With B2, the Michaelis constant (Km) in data set [10] was determined as 2100 ± 200 µM.

These data come from PMC11353897, “Biochemical and structural elucidation of the L-carnitine degradation pathway of the human pathogen Acinetobacter baumannii” (Frontiers in Microbiology, 2024).
